We go through 1 substance from PMC314469, “Protein Interaction Networks by Proteome Peptide Scanning” (PLoS Biology, 2004).

Assay [1] concerns the target endophilin SH3 (SH3G2_HUMAN) (UniProt Q99962). As to the kind of experiment: SPOT array.
For assay [2], the target named is amphyphisin SH3 (AMPH_HUMAN) (UniProt P49418). Nature of the assay: SPOT array.

With P46781 11-24, the normalised SPOT signal, Boehringer light units (BLU); mean over the file's lines of this peptide in assay [1] is 269; in assay [2] it was 245.
